From patent US20250145729A1 (DENALI THERAPEUTICS, published 2025)
Where two headings read alike, the source gives them in different places.

B4: human CD98hc (receptor)
chain: CRELPAQKWWHTGALYRIGDLQAFQGHGAGNLAGLKGRLDYLSSLKVKGLVLGPIHKNQKDDVAQTDLLQIDPNFGSKEDFDSLLQSAKKKSIRVILDLTPNYRGENSWFSTQVDTVATKVKDALEFWLQAGVDGFQVRDIENLKDASSFLAEWQNITKGFSEDRLLIAGTNSSDLQQILSLLESNKDLLLTSSYLSDSGSTGEHTKSLVTQYLNATGNRWCSWSLSQARLLTSFLPAQLLRLYQLMLFTLPGTPVFSYGDEIGLDAAALPGQPMEAPVMLWDESSFPDIPGAVSANMTVKGQSEDPGSLLSLFRRLSDQRSKERSLLHGDFHAFSAGPGLFSYIRHWDQNERFLVVLNFGDVGLSAGLQASDLPASASLPAKADLLLSTQPGREEGSPLELERLKLEPHEGLLLRFPYAA
notes: also called huCD98hc; CD98 heavy chain

Key:
LLB2.10.8.10.8 = target: T1, LLB2.10.8.10.8 (Homo sapiens (Human), UniProt P0DOX5 233-449 = IgG part; P0DOX5 233-449 = IgG part, T366W); test: SPR (Biacore)
T1 construct: Fc parts only
In short: (§1)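 The values are Kd for CD98hc binding by engineered Fc polypeptides, determined by surface plasmon resonance on a Biacore instrument. Clones were tested as Fc-Fab fusions carrying anti-BACE1 Fabs, in bivalent form or in a monovalent knob/hole form with the CD98hc-binding site only on the knob chain.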

LLB2-10-8-d3 MV = target: T2, LLB2-10-8-d3 MV (Homo sapiens (Human), UniProt P0DOX5 233-449 = IgG part; P0DOX5 233-449 = IgG part, T366W); test: SPR (Biacore)
T2 construct: Fc parts only; MV = monovalent
In short: as §1

LLB2.10.8.10.1 = target: T3, LLB2.10.8.10.1 (Homo sapiens (Human), UniProt P0DOX5 233-449 = IgG part; P0DOX5 233-449 = IgG part, T366W); test: SPR (Biacore)
T3 construct: Fc parts only
In short: as §1

LLB2-10-6 Mono = target: T4, LLB2-10-6 Mono (Homo sapiens (Human), UniProt P0DOX5 233-449 = IgG part; P0DOX5 233-449 = IgG part, T366W); test: SPR (Biacore)
T4 construct: Fc parts only
In short: as §1

LLB2.10.8.4.12 = target: T5, LLB2.10.8.4.12 (Homo sapiens (Human), UniProt P0DOX5 233-449 = IgG part; P0DOX5 233-449 = IgG part, T366W); test: SPR (Biacore)
T5 construct: Fc parts only
In short: as §1

LLB2.10.8.10.3 = target: T6, LLB2.10.8.10.3 (Homo sapiens (Human), UniProt P0DOX5 233-449 = IgG part; P0DOX5 233-449 = IgG part, T366W); test: SPR (Biacore)
T6 construct: Fc parts only
In short: as §1

[1] = target: T7, LLB2-37 (monovalent, Table A6) (Homo sapiens (Human), UniProt P0DOX5 233-449 = IgG part; P0DOX5 233-449 = IgG part, T366W); test: SPR (Biacore)
T7 construct: Fc parts only
In short: as §1

LLB2.10.8.12.5 = target: T8, LLB2.10.8.12.5 (Homo sapiens (Human), UniProt P0DOX5 233-449 = IgG part; P0DOX5 233-449 = IgG part, T366W); test: SPR (Biacore)
T8 construct: Fc parts only
In short: as §1

LLB2-10-8-d1 MV = target: T9, LLB2-10-8-d1 MV (Homo sapiens (Human), UniProt P0DOX5 233-449 = IgG part; P0DOX5 233-449 = IgG part, T366W); test: SPR (Biacore)
T9 construct: Fc parts only; MV = monovalent
In short: as §1

LLB2.10.8.2.1 = target: T10, LLB2.10.8.2.1 (Homo sapiens (Human), UniProt P0DOX5 233-449 = IgG part; P0DOX5 233-449 = IgG part, T366W); test: SPR (Biacore)
T10 construct: Fc parts only
In short: as §1

human CD98hc [2] = target: B4; test: affinity as listed in study design table; method not given there; Bivalent, NBF Fabs
human CD98hc [3] = target: B4; test: affinity as listed in study design table; method not given there
[4] = target: T11, Clone 8: LLB2-10-6 monovalent, non-binding Fabs (Homo sapiens (Human), UniProt P0DOX5 233-449 = IgG part; P0DOX5 233-449 = IgG part, T366W); test: as above
T11 construct: CD98hc site on the knob Fc only; effector positive

[5] = target: T11, Clone 8: LLB2-10-6 monovalent, …; test: as above; remark: listed apart in the source
[6] = target: T12, Clone 13: LLB1-3-16 monovalent, non-binding Fabs (Homo sapiens (Human), UniProt P0DOX5 233-449 = IgG part; P0DOX5 233-449 = IgG part, T366W); test: as above
T12 construct: CD98hc site on the knob Fc only; effector positive

[7] = target: T11, Clone 8: LLB2-10-6 monovalent, …; test: as above; remark: listed apart in the source
[8] = target: T13, Clone 18: LLB2-37 monovalent, non-binding Fabs (Homo sapiens (Human), UniProt P0DOX5 233-449 = IgG part; P0DOX5 233-449 = IgG part, T366W); test: as above
T13 construct: CD98hc site on the knob Fc only; effector positive

[9] = target: T11, Clone 8: LLB2-10-6 monovalent, …; test: as above; remark: listed apart in the source
[10] = target: T14, circularly permuted human TfR apical domain (human); test: Biacore SPR, Fc-Fab fusion
T14 construct: TfR residues 326-379 stand N-terminal to 194-296, loop 297-325 deleted; also called huTfR Apical Domain
T14 chain: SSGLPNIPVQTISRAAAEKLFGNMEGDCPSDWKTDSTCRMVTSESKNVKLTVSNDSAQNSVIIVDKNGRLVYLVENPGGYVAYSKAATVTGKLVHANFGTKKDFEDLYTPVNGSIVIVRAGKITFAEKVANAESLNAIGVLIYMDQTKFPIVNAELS

[11] = target: T14, circularly permuted human TfR apical …; test: Biacore SPR, Fc-Fab fusion; bivalent, LALA

B1: human CD98hc (receptor)
chain: CRELPAQKWWHTGALYRIGDLQAFQGHGAGNLAGLKGRLDYLSSLKVKGLVLGPIHKNQKDDVAQTDLLQIDPNFGSKEDFDSLLQSAKKKSIRVILDLTPNYRGENSWFSTQVDTVATKVKDALEFWLQAGVDGFQVRDIENLKDASSFLAEWQNITKGFSEDRLLIAGTNSSDLQQILSLLESNKDLLLTSSYLSDSGSTGEHTKSLVTQYLNATGNRWCSWSLSQARLLTSFLPAQLLRLYQLMLFTLPGTPVFSYGDEIGLDAAALPGQPMEAPVMLWDESSFPDIPGAVSANMTVKGQSEDPGSLLSLFRRLSDQRSKERSLLHGDFHAFSAGPGLFSYIRHWDQNERFLVVLNFGDVGLSAGLQASDLPASASLPAKADLLLSTQPGREEGSPLELERLKLEPHEGLLLRFPYAA
notes: as for B4
In the case of B1, the Kd (LLB2.10.8.10.8) is reported as 94 nM, the Kd (LLB2-10-8-d3 MV) is reported as 470 nM and the Kd (LLB2.10.8.10.1) is reported as 54 nM. It also gave a Kd (LLB2-10-6 Mono) of 420 nM, a Kd (LLB2.10.8.4.12) of 15 nM and a Kd (LLB2.10.8.10.3) of 43 nM. The Kd [1] was 390 nM, the Kd (LLB2.10.8.12.5) was 230 nM and the Kd (LLB2-10-8-d1 MV) was 250 nM. It also gave a Kd (LLB2.10.8.2.1) of 110 nM.

B2: Clone 4: LLB1-3 D380E bivalent, non-binding Fabs (Fc fusion)
chain: APELLGGPSVFLFPPKPKDTLMISRTPEVTCVVVDVSHEDPEVKFNWYVDGVEVHNAKTKPREEQYNSTYRVVSVLTVLHQDWLNGKEYKCKVSNKALPAPIEKTISKAKGQPREPQVYTLPPSRDELTKNQVSLTCLVKGFYPSDIAVEWRSYKPYENNYKTTPPVLDSDGSFFLYSKLTVDKSRWQQGNIFVCDVMHEALHNHYTIKKLSLSPGK
notes: bivalent; effector positive
B2 was tested, and the Kd (human CD98hc [2]) was 1000 nM.

B3: Clone 27: LLB2-10-8 monovalent, non-binding Fabs, LALAPG (Fc fusion)
chain 1: APEAAGGPSVFLFPPKPKDTLMISRTPEVTCVVVDVSHEDPEVKFNWYVDGVEVHNAKTKPREEQYNSTYRVVSVLTVLHQDWLNGKEYKCKVSNKALGAPIEKTISKAKGQPREPQVYTLPPSRDELTKNQVSLWCLVKGFYPSDIAVLWNSRFVLENNYKTTPPVLDSDGSFFLYSKLTVDKSRWQQGEIFACNVYHEALHNHYTFKNLALSPGK
chain 2: APEAAGGPSVFLFPPKPKDTLMISRTPEVTCVVVDVSHEDPEVKFNWYVDGVEVHNAKTKPREEQYNSTYRVVSVLTVLHQDWLNGKEYKCKVSNKALGAPIEKTISKAKGQPREPQVYTLPPSRDELTKNQVSLSCAVKGFYPSDIAVEWESNGQPENNYKTTPPVLDSDGSFFLVSKLTVDKSRWQQGNVFSCSVMHEALHNHYTQKSLSLSPGK
notes: effector negative (LALAPG)
In the case of B3, the Kd (human CD98hc [3]) is reported as 100 to 200 nM.

For B4, the Kd [4] was 260 nM, the Kd [5] was 260 nM and the Kd [6] was 32 nM. The Kd [7] was 260 nM, the Kd [8] was 390 nM and the Kd [9] was 230 nM.

B5: 6.5.11.1 bivalent (Fc fusion)
chain: APELLGGPSVFLFPPKPKDTLMISRTPEVTCVVVDVSHEDPEVKFNWYVDGVEVHNAKTKPREEQYNSTYRVVSVLTVLHQDWLNGKEYKCKVSNKALPAPIEKTISKAKGQPREPQVYTLPPSRDELTKNQVSLTCLVKGFYPSDIAVNWFSNGQIENNYKTTPPVLDSDGSFFLYSKLTVDKSRWQQGNLFACEVMHEALHNHYTYKLLSLSPGK
notes: also called Clone 6.5.11.1 bivalent
For B5, the Kd [10] was 20 to 40 µM.

B6: 6.5.11.5.42 bivalent (Fc fusion)
chain: APEAAGGPSVFLFPPKPKDTLMISRTPEVTCVVVDVSHEDPEVKFNWYVDGVEVHNAKTKPREEQYNSTYRVVSVLTVLHQDWLNGKEYKCKVSNKALPAPIEKTISKAKGQPREPQVYTLPPSRDELTKNQVSLTCLVKGFYPSDIAVYWFSGGQRENNYKTTPPVLDSDGSFFLYSKLTVDKSRWQQGNLFACEVMHEALHNHYTYKLLSLSPGK
notes: both Fc with LALA
In the case of B6, the Kd [11] is reported as 2000 nM.
